Measurements: patent US20220062405A1

What was measured:
[1] = molecular target: FcγRIIb/c (CD32b/c) (human) (UniProt P31994)
FcγRIIIa (CD16a) (human) = FcγRIIIa (CD16a) (human) (UniProt P08637)
FcγRI (CD64) (human) = FcγRI (CD64) (human) (UniProt P12314)
FcRn (human) = FcRn (human) (UniProt P55899)
FcγRIIa (CD32a) (human) = FcγRIIa (CD32a) (human) (UniProt P12318)
[2] = molecular target: parvovirus antigen (target of Parvovirus-Ab); test: specific antibody content of the polyclonal IgG preparation; assay not described
[3] = molecular target: diphtheria toxin (target of Diphteria antitoxin) (UniProt P00588); test: as above
Sequence of UniProt P00588 (P00588 33-567 limits assumed): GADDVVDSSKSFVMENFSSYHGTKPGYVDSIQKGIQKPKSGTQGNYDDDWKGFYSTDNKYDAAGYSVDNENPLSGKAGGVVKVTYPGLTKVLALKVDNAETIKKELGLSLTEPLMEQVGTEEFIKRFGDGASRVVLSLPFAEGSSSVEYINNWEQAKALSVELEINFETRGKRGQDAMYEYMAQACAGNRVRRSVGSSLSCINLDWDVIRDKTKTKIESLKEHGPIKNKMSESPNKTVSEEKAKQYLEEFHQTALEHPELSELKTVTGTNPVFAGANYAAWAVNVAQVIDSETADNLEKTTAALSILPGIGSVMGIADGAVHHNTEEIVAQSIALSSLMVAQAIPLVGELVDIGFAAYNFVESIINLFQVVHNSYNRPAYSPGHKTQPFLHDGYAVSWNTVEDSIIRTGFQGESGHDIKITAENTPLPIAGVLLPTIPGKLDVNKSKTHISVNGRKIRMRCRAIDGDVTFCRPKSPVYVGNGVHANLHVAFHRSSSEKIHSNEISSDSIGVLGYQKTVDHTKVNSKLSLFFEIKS

## IgG (Hizentra) (antibody)
[1]
  Kd: 2700 nM
FcγRIIIa (CD16a) (human)
  Kd: 496 nM
  koff: 0.036 s⁻¹
  kon: 73000 M⁻¹ s⁻¹
FcγRI (CD64) (human)
  Kd: 19.7 nM
  koff: 0.0017 s⁻¹
  kon: 87000 M⁻¹ s⁻¹
FcRn (human)
  Kd: 1 nM
  koff: 0.0025 s⁻¹
  kon: 2.5e+06 M⁻¹ s⁻¹
FcγRIIa (CD32a) (human)
  Kd: 213 nM
  koff: 0.055 s⁻¹
  kon: 260000 M⁻¹ s⁻¹
[2]; original Hizentra formulation
  Parvovirus-Ab (IU/mL): 595 IU/mL
[2]; re-formulated Hizentra
  Parvovirus-Ab (IU/mL): 509 IU/mL
[3]
  Diphteria antitoxin (IU/mL): 18.1 IU/mL
